Where “and” joins values, the source holds several entries; their conditions need not be identical. Identical values can stand only once.
Assays:
REGα = REGα (UniProt Q06323)
REGα/β = REGα/β (UniProt Q06323)
REGγ (wild-type) = REGγ (wild-type) (UniProt P61289)
REGγ(K188A) = REGγ(K188A) (UniProt P61289)
REGγ(K188C) = REGγ(K188C) (UniProt P61289)
REGγ(K188D) = REGγ(K188D) (UniProt P61289)
REGγ(K188D), sequence (P61289 whole entry K188D): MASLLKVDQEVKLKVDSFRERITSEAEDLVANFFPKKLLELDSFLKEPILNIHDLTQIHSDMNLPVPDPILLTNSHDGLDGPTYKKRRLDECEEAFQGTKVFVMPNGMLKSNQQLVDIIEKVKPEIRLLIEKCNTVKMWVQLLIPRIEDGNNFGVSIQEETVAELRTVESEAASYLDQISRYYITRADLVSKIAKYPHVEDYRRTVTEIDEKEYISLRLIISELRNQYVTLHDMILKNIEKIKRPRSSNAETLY

REGγ(K188A), sequence (P61289 whole entry K188A): as the sequence (P61289 whole entry K188D) above, with D188A counted along it
REGγ (wild-type), sequence (P61289 whole entry): as the sequence (P61289 whole entry K188D) above, with D188K counted along it
REGγ(K188C), sequence (P61289 whole entry K188C): as the sequence (P61289 whole entry K188D) above, with D188C counted along it
REGα/β, sequence (Q06323 whole entry, chain 1 of 2): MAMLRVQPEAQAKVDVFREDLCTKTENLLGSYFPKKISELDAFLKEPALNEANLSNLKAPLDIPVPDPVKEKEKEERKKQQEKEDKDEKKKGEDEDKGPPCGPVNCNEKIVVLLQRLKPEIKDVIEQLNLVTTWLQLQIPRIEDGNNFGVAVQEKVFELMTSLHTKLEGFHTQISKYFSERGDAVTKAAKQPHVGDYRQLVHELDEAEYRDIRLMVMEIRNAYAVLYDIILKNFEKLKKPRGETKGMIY
REGα/β, sequence (chain, as listed by the source, chain 2 of 2): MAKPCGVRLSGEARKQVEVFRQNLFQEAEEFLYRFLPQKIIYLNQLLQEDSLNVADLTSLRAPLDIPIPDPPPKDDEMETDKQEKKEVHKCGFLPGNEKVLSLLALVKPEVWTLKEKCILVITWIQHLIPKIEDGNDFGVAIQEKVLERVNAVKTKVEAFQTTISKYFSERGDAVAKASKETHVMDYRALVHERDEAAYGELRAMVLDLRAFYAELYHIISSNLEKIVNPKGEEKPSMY
REGα, sequence (Q06323 whole entry): as the sequence (Q06323 whole entry, chain 1 of 2) above

With “20S proteasome (human red blood cell proteasomes)” as the substance, how does the Stimulation of cleavage (x-fold), AAF-MCA (REGα) read?
The Stimulation of cleavage (x-fold), AAF-MCA was 6 x-fold.

What about the Stimulation of cleavage (x-fold), DEVD(SEQ ID NO: 8)-MCA (REGα) of the same substance?
The Stimulation of cleavage (x-fold), DEVD(SEQ ID NO: 8)-MCA was 10 x-fold.

And the Stimulation of cleavage (x-fold), FSR-MCA (REGα)?
The Stimulation of cleavage (x-fold), FSR-MCA was 10 x-fold.

What about the Stimulation of cleavage (x-fold), IEGR(SEQ ID NO: 5)-MCA (REGα) of the same substance?
Its Stimulation of cleavage (x-fold), IEGR(SEQ ID NO: 5)-MCA is 3 x-fold.

And the Stimulation of cleavage (x-fold), IETD(SEQ ID NO: 6)-MCA (REGα)?
Its Stimulation of cleavage (x-fold), IETD(SEQ ID NO: 6)-MCA is 30 x-fold.

What about the Stimulation of cleavage (x-fold), LGHD(SEQ ID NO: 7)-MCA (REGα) of the same substance?
The Stimulation of cleavage (x-fold), LGHD(SEQ ID NO: 7)-MCA was 11 x-fold.

And the Stimulation of cleavage (x-fold), LLE-βNA (REGα)?
Its Stimulation of cleavage (x-fold), LLE-βNA is 9 x-fold.

And the Stimulation of cleavage (x-fold), LLVY(SEQ ID NO: 1)-MCA (REGα)?
The Stimulation of cleavage (x-fold), LLVY(SEQ ID NO: 1)-MCA was 16 x-fold.

What about the Stimulation of cleavage (x-fold), LLVY-MCA (REGα) of the same substance?
Its Stimulation of cleavage (x-fold), LLVY-MCA is 16 x-fold.

And the Stimulation of cleavage (x-fold), LRR-MCA (REGα)?
Its Stimulation of cleavage (x-fold), LRR-MCA is 16 x-fold.

And the Stimulation of cleavage (x-fold), LY-MCA (REGα)?
Its Stimulation of cleavage (x-fold), LY-MCA is 5 x-fold.

What about the Stimulation of cleavage (x-fold), VLK-MCA (REGα) of the same substance?
Its Stimulation of cleavage (x-fold), VLK-MCA is 7 x-fold.

What about the Stimulation of cleavage (x-fold), YVAD(SEQ ID NO: 9)-MCA (REGα) of the same substance?
The Stimulation of cleavage (x-fold), YVAD(SEQ ID NO: 9)-MCA was 9 x-fold.

And the “hydrolysis of the 21-residue peptide P21 by the proteasome (HPLC)” value (REGα)?
The value was “REGγ(K188E or D) and REGα markedly increased sunstrate consumption”.

What about the % Degraded, substrate F1-EPQPQ (SEQ ID NO: 15), 5 hr (REGα/β) of the same substance?
Its % Degraded, substrate F1-EPQPQ (SEQ ID NO: 15), 5 hr is 55%.

And the % Degraded, substrate F1-KSQPQ (SEQ ID NO: 16), 5 hr (REGα/β)?
The % Degraded, substrate F1-KSQPQ (SEQ ID NO: 16), 5 hr was 85%.

What about the % Degraded, substrate F1-QHQ, 5 hr (REGα/β) of the same substance?
The % Degraded, substrate F1-QHQ, 5 hr was 80%.

And the % Degraded, substrate F1-QPQ, 5 hr (REGα/β)?
Its % Degraded, substrate F1-QPQ, 5 hr is 85%.

What about the % Degraded, substrate F1-QQQ, 5 hr (REGα/β) of the same substance?
The % Degraded, substrate F1-QQQ, 5 hr was 85%.

And the % Degraded, substrate F1-EPQPQ (SEQ ID NO: 15), 5 hr (REGγ (wild-type))?
Its % Degraded, substrate F1-EPQPQ (SEQ ID NO: 15), 5 hr is 5%.

What about the % Degraded, substrate F1-KSQPQ (SEQ ID NO: 16), 5 hr (REGγ (wild-type)) of the same substance?
The % Degraded, substrate F1-KSQPQ (SEQ ID NO: 16), 5 hr was 15%.

And the % Degraded, substrate F1-QHQ, 5 hr (REGγ (wild-type))?
Its % Degraded, substrate F1-QHQ, 5 hr is 5%.

And the % Degraded, substrate F1-QPQ, 5 hr (REGγ (wild-type))?
Its % Degraded, substrate F1-QPQ, 5 hr is 5%.

And the % Degraded, substrate F1-QQQ, 5 hr (REGγ (wild-type))?
Its % Degraded, substrate F1-QQQ, 5 hr is 15%.

And the Stimulation of cleavage (x-fold), AAF-MCA (REGγ (wild-type))?
The Stimulation of cleavage (x-fold), AAF-MCA was 1 x-fold.

What about the Stimulation of cleavage (x-fold), DEVD(SEQ ID NO: 8)-MCA (REGγ (wild-type)) of the same substance?
Its Stimulation of cleavage (x-fold), DEVD(SEQ ID NO: 8)-MCA is 2 x-fold.

And the Stimulation of cleavage (x-fold), FSR-MCA (REGγ (wild-type))?
Its Stimulation of cleavage (x-fold), FSR-MCA is 7 x-fold.

And the Stimulation of cleavage (x-fold), IEGR(SEQ ID NO: 5)-MCA (REGγ (wild-type))?
Its Stimulation of cleavage (x-fold), IEGR(SEQ ID NO: 5)-MCA is 1 x-fold.

And the Stimulation of cleavage (x-fold), IETD(SEQ ID NO: 6)-MCA (REGγ (wild-type))?
The Stimulation of cleavage (x-fold), IETD(SEQ ID NO: 6)-MCA was 1 x-fold.

And the Stimulation of cleavage (x-fold), LGHD(SEQ ID NO: 7)-MCA (REGγ (wild-type))?
Its Stimulation of cleavage (x-fold), LGHD(SEQ ID NO: 7)-MCA is 1 x-fold.

What about the Stimulation of cleavage (x-fold), LLE-βNA (REGγ (wild-type)) of the same substance?
Its Stimulation of cleavage (x-fold), LLE-βNA is 0.6 x-fold.

What about the Stimulation of cleavage (x-fold), LLVY(SEQ ID NO: 1)-MCA (REGγ (wild-type)) of the same substance?
The Stimulation of cleavage (x-fold), LLVY(SEQ ID NO: 1)-MCA was 0.4 x-fold.

And the Stimulation of cleavage (x-fold), LLVY-MCA (REGγ (wild-type))?
Its Stimulation of cleavage (x-fold), LLVY-MCA is 0.4 x-fold.

And the Stimulation of cleavage (x-fold), LRR-MCA (REGγ (wild-type))?
The Stimulation of cleavage (x-fold), LRR-MCA was 12 x-fold and 11 x-fold.

And the Stimulation of cleavage (x-fold), LY-MCA (REGγ (wild-type))?
Its Stimulation of cleavage (x-fold), LY-MCA is 2 x-fold.

And the Stimulation of cleavage (x-fold), VLK-MCA (REGγ (wild-type))?
Its Stimulation of cleavage (x-fold), VLK-MCA is 5 x-fold.

And the Stimulation of cleavage (x-fold), YVAD(SEQ ID NO: 9)-MCA (REGγ (wild-type))?
Its Stimulation of cleavage (x-fold), YVAD(SEQ ID NO: 9)-MCA is 0.9 x-fold.

And the “hydrolysis of the 21-residue peptide P21 by the proteasome (HPLC)” value (REGγ (wild-type))?
Its value is “Wild-type REGγ decreased hydrolysis of P21 by the proteasome”.

And the Stimulation of cleavage (x-fold), LLE-βNA (REGγ(K188A))?
Its Stimulation of cleavage (x-fold), LLE-βNA is 6 x-fold.

What about the Stimulation of cleavage (x-fold), LLVY-MCA (REGγ(K188A)) of the same substance?
Its Stimulation of cleavage (x-fold), LLVY-MCA is 6 x-fold.

And the Stimulation of cleavage (x-fold), LRR-MCA (REGγ(K188A))?
Its Stimulation of cleavage (x-fold), LRR-MCA is 13 x-fold.

And the Stimulation of cleavage (x-fold), LLE-βNA (REGγ(K188C))?
The Stimulation of cleavage (x-fold), LLE-βNA was 5 x-fold.

And the Stimulation of cleavage (x-fold), LLVY-MCA (REGγ(K188C))?
Its Stimulation of cleavage (x-fold), LLVY-MCA is 6 x-fold.

What about the Stimulation of cleavage (x-fold), LRR-MCA (REGγ(K188C)) of the same substance?
The Stimulation of cleavage (x-fold), LRR-MCA was 13 x-fold.

And the Stimulation of cleavage (x-fold), AAF-MCA (REGγ(K188D))?
Its Stimulation of cleavage (x-fold), AAF-MCA is 4 x-fold.

What about the Stimulation of cleavage (x-fold), DEVD(SEQ ID NO: 8)-MCA (REGγ(K188D)) of the same substance?
Its Stimulation of cleavage (x-fold), DEVD(SEQ ID NO: 8)-MCA is 9 x-fold.

What about the Stimulation of cleavage (x-fold), FSR-MCA (REGγ(K188D)) of the same substance?
Its Stimulation of cleavage (x-fold), FSR-MCA is 7 x-fold.

And the Stimulation of cleavage (x-fold), IEGR(SEQ ID NO: 5)-MCA (REGγ(K188D))?
Its Stimulation of cleavage (x-fold), IEGR(SEQ ID NO: 5)-MCA is 2 x-fold.

What about the Stimulation of cleavage (x-fold), IETD(SEQ ID NO: 6)-MCA (REGγ(K188D)) of the same substance?
Its Stimulation of cleavage (x-fold), IETD(SEQ ID NO: 6)-MCA is 26 x-fold.

What about the Stimulation of cleavage (x-fold), LGHD(SEQ ID NO: 7)-MCA (REGγ(K188D)) of the same substance?
Its Stimulation of cleavage (x-fold), LGHD(SEQ ID NO: 7)-MCA is 11 x-fold.

From US20040233833
